Where two headings read alike, the source gives them in different places. Each block holds one binder with its values, some of them ahead of it.
Legend:
[1] = target: T1, human DLL4, full length, on cells (human, UniProt Q9NR61 27-685); assay: competition FACS: huNotch-1-biotin to DLL4 cells
T1 construct: also called huDLL4 cells; human DLL4-293G
Protocol: (§1) Notch blocking assay: Briefly, stable cell lines overexpressing cell-surface DLL4 were harvested from tissue culture flasks and re-suspended in phosphate buffered saline (PBS) containing 1% bovine serum albumin and 1 mM CaCl₂ (FACS buffer). HEK293G-DLL4 cells were dispensed into 96-well plate (v-bottom) at 1.5×10⁵ cells/well in FACS buffer. After spinning down cells and discarding the supernatant, 50 μL of purified IgG with appropriate dilution were added to each well, and incubated on ice at 4° C. for 60 minutes, followed by addition of 50 μL/well of Notch1-biotin at 0.2 μg/mL for human DLL4-293G or 2.0 μg/mL for mouse DLL4-293G (1.0 or 0.1 μg/mL final) for an additional 1 hour incubation ice at 4° C. After washing the cells two times with FACS buffer, 50 μL of R-phycoerythrin-conjugated streptavidin (1:150 dilution in FACS buffer) (Jackson ImmunoResearch, West Grove, Pa., Cat.#016-110-084) were added. Following an incubation on ice (4° C., 60 minutes), cells were washed three times and resuspended in FACS buffer. Fluorescence was measured using a Becton Dickinson FACSCalibur-HTS (Becton Dickinson, San Jose, Calif.). Data were analyzed using Graphpad Prism software, and IC₅₀ values were reported as the concentration of antibody to achieve 50% reduction of Notch1 bound to DLL4 expressing cells. […]

mouse DLL4 on cells [2] = target: T2, mouse DLL4 on cells (mouse, UniProt Q9JI71 27-686); assay: competition FACS: huNotch-1-biotin to DLL4 cells
T2 construct: whole, on cells; also called mouse DLL4-293G; mu DLL4 cells
T2 sequence (Q9JI71 27-686): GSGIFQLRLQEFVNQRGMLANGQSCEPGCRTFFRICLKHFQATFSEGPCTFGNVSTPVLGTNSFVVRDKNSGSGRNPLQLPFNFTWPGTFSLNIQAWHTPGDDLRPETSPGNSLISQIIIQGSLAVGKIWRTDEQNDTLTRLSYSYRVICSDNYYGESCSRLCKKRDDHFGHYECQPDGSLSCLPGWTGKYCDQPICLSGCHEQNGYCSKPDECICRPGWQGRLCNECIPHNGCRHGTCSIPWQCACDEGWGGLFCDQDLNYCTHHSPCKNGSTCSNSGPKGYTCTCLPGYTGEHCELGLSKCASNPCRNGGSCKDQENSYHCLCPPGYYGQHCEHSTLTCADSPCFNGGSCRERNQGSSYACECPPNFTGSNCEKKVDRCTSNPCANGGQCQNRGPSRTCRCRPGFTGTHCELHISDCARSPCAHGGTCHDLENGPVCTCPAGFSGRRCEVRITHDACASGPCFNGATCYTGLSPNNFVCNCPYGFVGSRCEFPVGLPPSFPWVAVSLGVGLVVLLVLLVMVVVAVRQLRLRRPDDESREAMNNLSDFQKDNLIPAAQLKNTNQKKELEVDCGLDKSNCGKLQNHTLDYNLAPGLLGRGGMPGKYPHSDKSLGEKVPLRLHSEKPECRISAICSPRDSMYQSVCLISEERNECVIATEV
Protocol: as §1

[3] = target: T1, human DLL4, full length, on cells; assay: cell-based or functional assay
[4] = target: T3, mouse DLL4 extracellular domain (mouse, UniProt Q9JI71 27-532); assay: SPR (Biacore)
T3 construct: extracellular domain; also called muDLL4 ECD; murine DLL4
T3 sequence (Q9JI71 27-532): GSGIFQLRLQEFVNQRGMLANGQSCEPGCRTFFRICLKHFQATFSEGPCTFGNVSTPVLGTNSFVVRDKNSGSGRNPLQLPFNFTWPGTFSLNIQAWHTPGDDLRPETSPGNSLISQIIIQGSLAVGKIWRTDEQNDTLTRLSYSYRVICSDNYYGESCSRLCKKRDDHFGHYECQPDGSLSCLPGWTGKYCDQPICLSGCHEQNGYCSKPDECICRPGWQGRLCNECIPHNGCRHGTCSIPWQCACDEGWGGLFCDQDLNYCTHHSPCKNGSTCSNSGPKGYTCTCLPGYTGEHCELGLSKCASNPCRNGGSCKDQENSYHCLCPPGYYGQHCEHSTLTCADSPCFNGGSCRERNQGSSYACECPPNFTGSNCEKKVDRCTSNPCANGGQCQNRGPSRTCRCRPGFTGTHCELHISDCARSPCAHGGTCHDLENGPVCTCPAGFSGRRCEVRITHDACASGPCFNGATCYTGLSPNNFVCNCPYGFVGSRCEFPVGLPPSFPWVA
Method in brief: (§2)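 Purified anti-DLL4 antibodies (1 μg/ml) captured on immobilized goat anti-human Fc, with DLL4 ECD injected as analyte; HBS-EPB running buffer (pH 7.4), 25° C, referenced against capture-only surface. On/off rates from global 1:1 Langmuir fit; KD = Koff/Kon.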

[5] = target: T4, rat DLL4 extracellular domain (rat, UniProt D3ZHH1 28-530); assay: SPR (Biacore)
T4 construct: extracellular domain; also called ratDLL4 ECD
T4 sequence (D3ZHH1 28-530): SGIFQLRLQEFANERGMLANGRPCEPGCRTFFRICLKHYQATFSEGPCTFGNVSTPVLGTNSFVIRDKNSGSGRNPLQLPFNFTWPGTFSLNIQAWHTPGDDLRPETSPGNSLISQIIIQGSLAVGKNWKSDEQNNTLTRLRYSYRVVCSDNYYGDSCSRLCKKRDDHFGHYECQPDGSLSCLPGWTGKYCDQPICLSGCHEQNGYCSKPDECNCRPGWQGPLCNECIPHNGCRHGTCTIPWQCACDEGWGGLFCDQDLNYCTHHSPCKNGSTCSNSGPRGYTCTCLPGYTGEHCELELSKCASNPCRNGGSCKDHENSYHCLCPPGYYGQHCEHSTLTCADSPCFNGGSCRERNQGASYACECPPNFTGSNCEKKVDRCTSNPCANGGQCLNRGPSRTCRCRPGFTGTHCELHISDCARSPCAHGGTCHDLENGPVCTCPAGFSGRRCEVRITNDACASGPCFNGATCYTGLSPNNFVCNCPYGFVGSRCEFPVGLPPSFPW
Method in brief: as §2

[6] = target: T5, human DLL4 extracellular domain (human, UniProt Q9NR61 27-529); assay: SPR (Biacore)
T5 construct: purified recombinant ECD; biotin-labelled or 6xHis-tagged depending on the assay; also called huDLL4 ECD; hu DLL4 ECD
T5 sequence (Q9NR61 27-529 limits assumed): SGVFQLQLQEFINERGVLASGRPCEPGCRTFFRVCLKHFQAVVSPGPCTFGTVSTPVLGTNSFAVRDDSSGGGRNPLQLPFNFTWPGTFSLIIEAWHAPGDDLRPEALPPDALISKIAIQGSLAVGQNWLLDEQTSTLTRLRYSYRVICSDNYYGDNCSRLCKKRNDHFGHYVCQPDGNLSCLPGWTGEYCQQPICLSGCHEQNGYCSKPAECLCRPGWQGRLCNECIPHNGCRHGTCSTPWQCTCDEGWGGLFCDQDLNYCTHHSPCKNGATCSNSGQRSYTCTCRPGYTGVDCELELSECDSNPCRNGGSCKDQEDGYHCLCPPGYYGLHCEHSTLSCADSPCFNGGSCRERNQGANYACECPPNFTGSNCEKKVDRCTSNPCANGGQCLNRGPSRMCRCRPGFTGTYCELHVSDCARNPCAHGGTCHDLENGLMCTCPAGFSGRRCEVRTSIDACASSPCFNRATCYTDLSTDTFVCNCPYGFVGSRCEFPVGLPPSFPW
Protocol: (§3) The BIACORE® surface plasmon resonance assay (Biacore, Inc., Piscataway, N.J., US) determines the affinity of antibodies with kinetic measurements of on-rate and off-rate constants. Binding of DLL4 antibodies to a purified recombinant DLL4 extracellular domain (ECD) was determined by surface plasmon resonance-based measurements with a Biacore® instrument (either a Biacore 2000, Biacore 3000, or Biacore T100; GE Healthcare, Piscataway, N.J., US) using running buffer HBS-EPB (10 mM HEPES [pH 7.4], 150 mM NaCl, 3 mM EDTA, 0.1 mg/ml BSA and 0.005% surfactant P20) at 25° C. For example, approximately 9000 RU of goat anti-human Fc specific polyclonal antibody (Thermo Fisher Scientific Inc., Rockford, Ill., US) diluted in 10 mM sodium acetate (pH 4.5) is directly immobilized across a CMS research grade biosensor chip using a standard amine coupling kit according to manufacturer's instructions and procedures at 25 μg/ml. Unreacted moieties on the biosensor surface were blocked with ethanolamine. For kinetic analysis, rate equations derived from the 1:1 Langmuir binding model were fitted simultaneously to multiple antigen injections (using global fit analysis) with the use of Scrubber 2 (BioLogic Software), Biacore Biaevaluation 4.0.1 software or Biacore T100 Evaluation software. Purified antibodies were diluted in running buffer for capture across goat anti-human Fc reaction surfaces. Antibodies to be captured as a ligand (1 μg/ml) were injected over reaction matrices at a flow rate of 10 μl/min. During the assay, all measurements were referenced against the capture surface alone (i.e., with no captured anti-DLL4 antibody). […] The equilibrium dissociation constant KD (M) of the reaction between antibodies and the target antigen was then calculated from the kinetic rate constants by the following formula: KD=Koff/Kₒₙ. Binding was recorded as a function of time and kinetic rate constants were calculated.

[7] = target: T6, cynomolgus monkey DLL4 extracellular domain (cynomolgus monkey); assay: SPR (Biacore)
T6 construct: extracellular domain; also called cynoDLL4 ECD; Cyno DLL4
Protocol: as §3

[8] = target: T3, mouse DLL4 extracellular domain; assay: competition ELISA: biotin-DLL4 ECD to coated huNotch-1
Protocol: (§4) Plates were then washed 3 times with wash buffer (PBS, 0.05% Tween-20) and blocked with 200 μl/well blocking buffer (D-PBS, 1% BSA, 1 mM CaCl₂, 0.05% Tween-20) for 1 hour at 25° C. While blocking, biotin labeled DLL4 extracellular domain (14 nM) was mixed with antibody (30 pM-66 nM, 3-fold serial dilution in blocking buffer) for 1 hour at 25° C. with shaking. Assay plates were washed after blocking, and incubated with DLL4/antibody mixtures (100 μl/well, 1 hour at 25° C. with shaking). Plates were washed again and 100 μl/well streptavidin conjugated with HRP (Fitzgerald #65R-S104PHRPx, diluted 1:5,000 in blocking buffer) was added for 1 hour at 25° C. with shaking. After a final wash, plates were developed using 100 μl/well substrate (TMB Sigma #T8665), and the reaction was stopped using 100 μl/well 1N HCl, and the absorbance was read at 450 nm. Data were analyzed using Graphpad Prism software and IC₅₀ values were reported as the concentration of antibody to achieve 50% reduction of DLL4 bound to Notch1.
Further characterization determined 37D10 and 40B10 were identical rat mAbs.

[9] = target: T1, human DLL4, full length, on cells; assay: FACS, DLL4 cells
Protocol: (§5) Stable cell lines overexpressing cell-surface DLL4 were harvested from tissue culture flasks, washed four times and resuspended in phosphate buffered saline (PBS) containing 1% bovine serum albumin and 1 mM CaCl₂ (FACS buffer). 1.5×10⁵ cells were incubated with antibodies at various concentrations in FACS buffer for 60 minutes on ice. […] Following an incubation on ice (4° C., 60 minutes), cells were washed three times and resuspended in FACS buffer. Fluorescence was measured using a Becton Dickinson FACSCalibur-HTS (Becton Dickinson, San Jose, Calif., US). Data were analyzed using Graphpad Prism software and EC₅₀ values were reported as the concentration of antibody to achieve 50% of maximal DLL4 antibodies binding to DLL4 expressing cells. […]

mouse DLL4 on cells [10] = target: T2, mouse DLL4 on cells; assay: FACS, DLL4 cells
Protocol: as §5

[11] = target: T1, human DLL4, full length, on cells; assay: competition FACS: huNotch-1 to DLL4 cells
Protocol: (§6) Notch blocking assay: Briefly, stable cell lines overexpressing cell-surface DLL4 were harvested from tissue culture flasks and re-suspended in phosphate buffered saline (PBS) containing 1% bovine serum albumin and 1 mM CaCl₂ (FACS buffer). HEK293G-DLL4 cells were dispensed into 96-well plate (v-bottom) at 1.5×10⁵ cells/well in FACS buffer. After spinning down cells and discarding the supernatant, 50 μL of purified IgG with appropriate dilution were added to each well, and incubated on ice at 4° C. for 60 minutes, followed by addition of 50 μL/well of Notch1-biotin at 0.2 μg/mL for human DLL4-293G or 2.0 μg/mL for mouse DLL4-293G (1.0 or 0.1 μg/mL final) for an additional 1 hour incubation ice at 4° C. After washing the cells two times with FACS buffer, 50 μL of R-phycoerythrin-conjugated streptavidin (1:150 dilution in FACS buffer) (Jackson ImmunoResearch, West Grove, Pa., Cat.#016-110-084) were added. Following an incubation on ice (4° C., 60 minutes), cells were washed three times and resuspended in FACS buffer. Fluorescence was measured using a Becton Dickinson FACSCalibur-HTS (Becton Dickinson, San Jose, Calif.). Data were analyzed using Graphpad Prism software, and IC₅₀ values were reported as the concentration of antibody to achieve 50% reduction of Notch1 bound to DLL4 expressing cells.

mouse DLL4 on cells [12] = target: T2, mouse DLL4 on cells; assay: competition FACS: huNotch-1 to DLL4 cells
Protocol: as §6

[13] = target: T1, human DLL4, full length, on cells; assay: FACS, DLL4 cells; remark: listed apart in the source
mouse DLL4 on cells [14] = target: T2, mouse DLL4 on cells; assay: FACS, DLL4 cells; remark: listed apart in the source
[15] = target: T1, human DLL4, full length, on cells; assay: FACS, DLL4 cells; remark: listed apart in the source
mouse DLL4 on cells [16] = target: T2, mouse DLL4 on cells; assay: FACS, DLL4 cells; remark: listed apart in the source
[17] = target: T5, human DLL4 extracellular domain; assay: competition ELISA vs Notch-1
Protocol: as §4
(§7) Purified variants were further characterized for their affinities for human, murine and cynomolgus DLL4 by binding ELISA (Example 1.2, Method 2), by Biacore (Example 1.1), and by Flow Cytometry (FACS). […] The humanized variants were then tested for their functionality with human and murine DLL4 by competition ELISA (Example 1.3) and by Notch reporter assay (Example 1.6).

[18] = target: T3, mouse DLL4 extracellular domain; assay: competition ELISA vs Notch-1
Protocol: as §4, §7

[19] = target: T5, human DLL4 extracellular domain; assay: SPR (Biacore); remark: listed apart in the source
[20] = target: T5, human DLL4 extracellular domain; assay: binding ELISA
Protocol: (§8) Plates were then washed 3 times. 100 μl/well of recombinant rat/human chimeric or recombinant human anti-DLL4 antibodies were then added to the plate (0.00164-27 nM, 4-fold serial dilution in ELISA buffer=PBST, 10% Superblock (Pierce #37515)) for 1 hour at 25° C. with shaking and then washed again 3 times. Plates were incubated with goat anti-human HRP (Pierce #31412) (1:40,000 dilution in ELISA buffer, 100 μl/well) for 1 hour at 25° C. with shaking, then washed 3 times. After the final wash, plates were incubated with 100 μl/well ELISA substrate (Sigma #T8665). The reaction was stopped after 8 minutes at 25° C. with 100 μl/well 1N HCl and the absorbance was read at 450 nm. Data were analyzed using Graphpad Prism software, and EC50 values were reported.
as §7

[21] = target: T3, mouse DLL4 extracellular domain; assay: binding ELISA
Protocol: as §8, §7

[22] = target: T6, cynomolgus monkey DLL4 extracellular …; assay: binding ELISA
Protocol: as §8, §7

[23] = target: T1, human DLL4, full length, on cells; assay: cell-based or functional assay; remark: listed apart in the source

T1 sequence (Q9NR61 27-685 limits assumed): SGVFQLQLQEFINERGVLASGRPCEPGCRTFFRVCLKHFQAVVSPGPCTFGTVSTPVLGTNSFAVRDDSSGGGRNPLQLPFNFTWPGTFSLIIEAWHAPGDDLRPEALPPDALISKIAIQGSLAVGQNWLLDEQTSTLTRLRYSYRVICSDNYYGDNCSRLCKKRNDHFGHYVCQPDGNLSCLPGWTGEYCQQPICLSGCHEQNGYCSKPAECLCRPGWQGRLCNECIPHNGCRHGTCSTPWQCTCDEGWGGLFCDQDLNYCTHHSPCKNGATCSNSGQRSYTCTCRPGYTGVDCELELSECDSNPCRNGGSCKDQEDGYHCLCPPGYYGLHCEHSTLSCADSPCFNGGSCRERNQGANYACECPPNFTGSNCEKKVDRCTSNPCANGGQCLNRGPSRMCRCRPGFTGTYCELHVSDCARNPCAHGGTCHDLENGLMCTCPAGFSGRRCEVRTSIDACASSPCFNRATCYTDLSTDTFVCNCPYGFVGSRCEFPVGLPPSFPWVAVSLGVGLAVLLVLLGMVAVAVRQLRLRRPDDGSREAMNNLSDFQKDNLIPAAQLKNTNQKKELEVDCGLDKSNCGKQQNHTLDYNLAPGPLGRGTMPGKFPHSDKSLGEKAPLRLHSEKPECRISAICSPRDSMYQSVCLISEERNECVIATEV

- IC50 [1]: 205 nM
- IC50 (mouse DLL4 on cells [2]): 1.6 nM
- Notch activation Inhibition (IC50, nM), huDLL4 cell/Notch reporter cells [3]: 2.7 nM
- Kd [4]: 1.3 nM
- koff [4]: 9e-05 s⁻¹
- kon [4]: 70000 M⁻¹ s⁻¹
- binding result [5]: no binding
- Kd [6]: 10.3 nM
- koff [6]: 0.0012 s⁻¹
- kon [6]: 120000 M⁻¹ s⁻¹
- Kd [7]: 11.6 nM
- koff [7]: 0.0012 s⁻¹
- kon [7]: 110000 M⁻¹ s⁻¹
- IC50 [8]: 19.8 nM
- EC50 [9]: > 50 nM
- EC50 (mouse DLL4 on cells [10]): 2.1 nM
B1: 14A11 rat anti-DLL4 monoclonal antibody (antibody, rat IgG2a, V domains shown)
VH: EVQLQQSGPELAKPGSSVKISCKASGYTFTNSYISWIKQTTGQGLEYVGYINTGSGGADYNEKFKGKATLTVDKSSRTAFMQLSSLTPGDSAVYYCAKSILLGSTCYFDYWGQGVLVTVSS
VL: NTVLTQSPALAVSLGQRVTISCKASRSVSSPMYSYIYWYQQKPGQQPKLLIYRASTLASGVPARFSGSGSGTDFTLNIDPVEADDIATYFCQQSWSDPFTFGSGTKLEIKR
notes: rat IgG2a/K hybridoma mAb; also called MC13-14A11.3A4

- IC50 [11]: 10.5 nM
- IC50 (mouse DLL4 on cells [12]): 1.49 nM
- EC50 [13]: 1.72 nM
- EC50 (mouse DLL4 on cells [14]): 1.82 nM
B2: 15D6 chimeric antibody (antibody, human IgG1, V domains shown)
VH: EVQLQQSGPELAKPGSSVKISCKASGYTFTSSYISWIKQTTGQGLEYIGYINTGSGGTDYNEKFKDKATLTVDKSSRTVFMQLSSLTPGDSAVYYCAKSILLGSTYYLDYWGQGVMVTVSS
VL: DTVLTQSPALAVSLGQRVTISCKASRSLSSPMYSYIYWYQQKLGQQPRLLIYRASTLASGVPARFSGSGSGTDFTLNIDPVEADDIATYFCQQSWSDPFTFGSGTKLEIKR
notes: also called Chimera of 15D6

- EC50 [15]: 6.29 nM
- EC50 (mouse DLL4 on cells [16]): 0.53 nM
- IC50 [17]: 1.8 nM
- IC50 [18]: 3.5 nM
- Kd [19]: 9 nM
- Kd [4]: 24 nM
- EC50 [20]: 0.2 nM
- EC50 [21]: 0.3 nM
- EC50 [22]: 0.33 nM
- IC50 [11]: 2.34 nM
- IC50 (mouse DLL4 on cells [12]): 0.682 nM
- Reporter Assay (EC50, nM) [23]: 5.98 nM
- EC50 [13]: 19.6 nM
- EC50 (mouse DLL4 on cells [14]): 0.74 nM
B3: 1A11 chimeric antibody (antibody, human IgG1, V domains shown)
VH: EVQLVESGGGLVQPGRSMKLSCAASGFTFRNFPMAWVRQAPTRGLEWVATISSSDGTTYYRDSVKGRFTISRDNAKSTLYLQVNSLRSEDTATYYCSRGYYNSPFAYWGQGTLVTVSS
VL: DIQMTQSPASLSASLGETVTIECRASEDIYSNLAWYQQKPGNSPQLLIFDTNNLADGVPSRFSGSGSGTQSSLKINSLQSEDVASYFCQQYNNYPPTFGGGTKLELKR
notes: also called Chimera of 1A11; 1A11 (chimera)
